According to patent US8063012B2, “Neuroprotective peptide inhibitors of AP-1 signaling and uses therefor” (Phylogica Limited, priority 2006, dated 2011):

What was measured:
[1] = test system: AP-1 luciferase reporter in K562/AP1-Luc cells; assay: Luciferase reporter gene assay of AP-1 dependent transcriptional activity; format: cell-based; settings: pcDNA3-peptide transfection, 48 hours, normalised to renilla, vs pcDNA3 vector
Method: Phylomer™ peptides that inhibit an AP-1 complex formation as described in Example 1 were tested for their ability to decrease AP-1 controlled reporter expression (since Jun dimers are AP-1 moieties). A transient transfection assay in which the expression of each clone was plasmid driven was employed, thereby avoiding the synthesis of large numbers of peptides.
The K562 cell line was stably-transfected with the AP-1 luciferase reporter (AP1-Luc) of the Mercury Pathway Profiling kit (Clontech, U.S.A.), and the clonal cell line K562/AP1-Luc was established. In 6-well tissue culture plate format, K562/AP1-Luc cells were transfected with either pcDNA3 control, pcDNA3-JunDN (a dominant negative mutant of c-Jun), or pcDNA3-peptide, using Lipofectamine2000 (Life Technologies) according to manufacturer's instructions. Transfection reactions were incubated for 48 hours, cells collected and protein lysates extracted for luciferase assay according to Mercury Pathway Profiling kit and associated protocols.
Luciferase assays were performed in independent triplicates, and results for each peptide subjected to statistical analysis (SPSS software package) to determine if they were different to JunDN (positive control for AP-1 inhibition) or pcDNA-3 (negative control for AP-1 inhibition).
All AP-1 luciferase values were normalised to the renilla expression from a cotransfection control. Under these experimental conditions, approximately 30% of Phylomer™ peptides decreased AP-1 reporter activity by at least 50% when compared to the vector-only control (i.e., pcDNA3 vector). More particularly, the peptides designated PYC35, PYC36, PYC38/39 and PYC41 reduced AP-1 reporter activity to approximately 35%, 44%, 47% and 48%, respectively of the level observed for the control sample.

[2] = target: T1, interaction between JUN1 and JunZ (c-Jun dimerization) (Homo sapiens, UniProt P05412); assay: Reverse-2-hybrid screening for inhibition of c-Jun dimerization in yeast; format: cell-based; settings: for yeast survival on media for counter-selection against AP-1 complex formation viz. c-Jun dimerization: initial reverse-two-hybrid screen, clones expressed from pYTB3; for recapitulation of the disruption phenotype: plasmid clones rescued and re-transformed, two assays
T1 construct: Partial fragments of c-Jun i.e., JunZ (774-927 bp) and Jun1 (558-1002 bp); expressed in transfected cells; host or cells: Saccharomyces cerevisiae strain PRT480, mated with library strain PRT51
Text: The yeast two hybrid system described by Vidal.M., In: The Yeast Two Hybrid System (eds. P. Bartel and S. Fields), Oxford University Press, New York (1997), was modified to add another counter selectable marker (CYH2) and to allow flexible titration of stringency by adjustment of sugar concentrations in the screening media.
Partial fragments of c-Jun i.e., JunZ (774-927 bp) and Jun1 (558-1002 bp), were cloned into yeast two-hybrid vectors pDD (a kanamycin-resistant variant of pGilda bait vector) and pJFK (pYesTrp prey vector (Invitrogen) modified by replacing the TRP1 yeast selection gene with HIS5), respectively, before co-transforming into Saccharomyces cerevisiae strain PRT480 (MATα, his3, trp1, ura3, 4 LexA-LEU2, lys2::3 cIop-LYS2, CAN^R, CYH2^R, ade2::2 LexA-CYH2-ZEO, his5::2 LexA-URA3-G418) using a standard lithium-acetate based chemical transformation protocol.
The Phylomer™ peptide library was transformed into S. cerevisiae strain PRT51 (MATα, his3, trp1, ura3, 6 LexA-LEU2, lys2::3 cIop-LYS2, CYH2^R, ade2::G418-pZero-ade2, met15::Zeo-pBLUE-met15, his5::hygro), using a high-efficiency lithium acetate-based chemical transformation protocol, slightly modified to maximize the number of transformants.
Bait/prey plasmid containing PRT480 haploids (10^8 cells) were mated with the Phylomer™ library (10^7 c.f.u.) according to a liquid mating protocol for pretransformed libraries (Clontech, USA), and plated to HW^− minimal media (minimal media lacking histidine and tryptophan) to select for diploids. These plates were scraped after 2 days incubation at 30° C., and the cells were washed, resuspended 1:1 (v/v) in yeast freezing solution (65% v/v glycerol, 0.1M MgSO4, 25 mM Tris-Cl pH 8.0), and frozen at −80° C. in 1 ml aliquots.
To select peptides that block formation of an AP-1 complex requiring the interaction between JUN1 and JunZ, about 1.5×10^7 c.f.u Jun/Phylomer™ diploids were thawed and outgrown overnight in HW^− to achieve log-phase growth. The following day, 4×10^7 cells were plated onto counter-selective media: HWU^− (lacking histidine, tryptophan and uracil), containing supplements of 0.02% galactose (gal), 2% raffinose (raff), 0.2 μg/ml uracil, 0.06% (w/v) 5-Fluoroorotic acid (FOA), 5 μg/ml cycloheximide. These plates were incubated for 7 days, then colonies were picked to HWU^− 0.02% gal, 2% raff, and then to HWL^− (lacking histidine, tryptophan and leucine) 0.02% gal, 2% raff to confirm blocking phenotype.
These included transformants comprising the clones designated PYC19 [DNA sequence set forth in SEQ ID NO: 26; encoded amino acid sequence set forth in SEQ ID NO: 27 (with FLAG epitope) and 28 (without FLAG epitope)]; PYC35 [DNA sequence set forth in SEQ ID NO: 34; encoded amino acid sequence set forth in SEQ ID NO: 35 (with FLAG epitope) and 36 (without FLAG epitope)]; PYC36 [DNA sequence set forth in SEQ ID NO: 43; encoded amino acid sequence set forth in SEQ ID NO: 44 (with FLAG epitope) and 45 (without FLAG epitope)]; PYC38/39 [DNA sequence set forth in SEQ ID NO: 52; encoded amino acid sequence set forth in SEQ ID NO: 53 (with FLAG epitope) and 54 (without FLAG epitope)]; and PYC41 [DNA sequence set forth in SEQ ID NO: 60; encoded amino acid sequence set forth in SEQ ID NO: 61 (with FLAG epitope) and 62 (without FLAG epitope)].
Subsequently, the individual plasmid clones were rescued from the yeast and re-transformed to confirm the disruption phenotype; 63% of the primary “hits”, including PYC 19, PYC35, […], PYC38/39 and PYC41, were positive in two assays for recapitulation of the phenotype.

[3] = test system: neurons around the lesion in the somatosensory cortex; assay: Acute cortical injury (focal traumatic brain injury), immunoreactivity in perilesion area; format: in vivo; settings: acute cortical injury of rat brain tissue in situ
Method: The ability of AP-1 signaling-inhibitory peptides to inhibit neuronal apoptosis was assessed by loss of MAP2 immunoreactivity in a focal model of traumatic brain injury (Chung et al., J. Neuroscience 23, 3336-3342, 2003; King et al., Neuropathol Appl Neurobiol. 27, 115-126, 2001).
Rats were subjected to acute cortical injury as previously described by Chung et al., J. Neuroscience 23, 3336-3342 (2003) and King et al., Neuropathol Appl Neurobiol. 27, 115-126 (2001). Briefly, male 240 g Hooded-Wistar rats were deeply anaesthetized using Isofluorane (2-3%) and were given an analgesic (Meloxycam, […]), by subcutaneous injection. Animals were immobilized in a Stoelting stereotactic frame, and a 21 gauge blunt Hamilton syringe was inserted into the Par1 region of the somatosensory cortex to a depth of 2 mm and was left in place for 10 minutes. Then, 0.5 μl of 5 μM peptide was administered through the syringe at a rate of 0.05 μl/min. Peptide (10 μl) was applied to 1 mm^2 of Gelfoam, which was implanted before suturing. At 1 day post-injury (PI), rats were deeply anaesthetized with sodium pentobarbital (60 mg/kg), then perfused transcardially with a 4% paraformalydehyde and 4% sucrose fixative solution in 0.01M PBS. Brains were removed and cryoprotected in 18% and 30% sucrose solutions, respectively and 40 μm coronal sections were collected serially through the injury site for immunohistochemical labelling. All animal procedures were approved by the University of Tasmania Animal Ethics Committee (Permit A008878).
Sections were labelled with Nissl Red, Nuclear Yellow and anti-MAP2 to allow a quantitative assessment of neuronal loss around the lesion. Sections from the lesion centre and 200 μm anterior and posterior to the centre of the injury, at layer III of the neocortex were included in the analysis and the area of MAP2 loss was scored by blinded observers. Three sections from each of three animals were examined for each treatment and significance assessed by ANOVA and post-hoc comparison (Tukey test).
All data are presented as mean±standard error. […]

T1 sequence (P05412 259-309 limits assumed): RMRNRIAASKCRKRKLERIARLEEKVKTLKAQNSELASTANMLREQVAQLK
T1 sequence (P05412 187-331 limits assumed): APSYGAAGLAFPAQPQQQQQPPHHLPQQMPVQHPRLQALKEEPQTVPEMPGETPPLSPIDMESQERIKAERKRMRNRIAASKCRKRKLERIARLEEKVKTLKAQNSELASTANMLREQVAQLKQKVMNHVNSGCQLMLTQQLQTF

recapitulation of the disruption phenotype [2] | Substance | AP-1 reporter activity, of the level observed for the control sample [1] | yeast survival on media for counter-selection against AP-1 complex formation viz. c-Jun dimerization [2] | astrogliosis as determined by glial fibrillary acidic protein immunoreactivity [3] | loss of neurons as determined by MAP2 immunoreactivity [3] | microglial activation as determined by ferritin immunoreactivity [3]
positive | PYC41: Phylomer clone; encoded amino acid sequence SEQ ID NO: 61 (with FLAG epitope) and 62 (without FLAG epitope) (VSINQEHHRLLPL; PYC41L peptide) | ~48% | allowed yeast survival | – | – | –
positive | PYC35: Phylomer clone; encoded amino acid sequence SEQ ID NO: 35 (with FLAG epitope) and 36 (without FLAG epitope) (AYQSIRSGGIESSSKRER; PYC35L peptide) | approximately 35% | allowed yeast survival | reduced astrogliosis | reduced loss of neurons | reduced microglial activation
positive | PYC36: Phylomer clone; encoded amino acid sequence SEQ ID NO: 44 (with FLAG epitope) and 45 (without FLAG epitope) (GLQGRRRQGYQSIKP; PYC36L peptide) | ~44% | allowed yeast survival | – | – | –
positive | PYC38/39: Phylomer clone; encoded amino acid sequence SEQ ID NO: 53 (with FLAG epitope) and 54 (without FLAG epitope) (GLQGRRQPGQQPQGRWSGRALPAHR; PYC38/39L peptide) | ~47% | allowed yeast survival | – | – | –
